According to patent US20140087995A1 (published 2014):
Numbered stars: 1 amine (or outer) side, 2 acyl side, 3 side chain; on linkers, the order of the positions; unused ones are H or OH. Bridge positions count the residues as written; N and C are the ends. Side chains are listed from the residue outwards. Ends that are not written are not given here. * marks the point of attachment. C20 diacid = O=C(O)CCCCCCCCCCCCCCCCCCC(=O)*; γGlu = O=C(O)[C@H](CCC(=O)[*:2])N[*:1]; AEEA = NCCOCCOCC(=O)O

T1: human amylin receptor (amylin 3(a) receptor: human calcitonin receptor co-expressed with RAMP-3) (human, UniProt P30988 25-474; O60896 24-148, limits assumed)
T1 sequence (looked up) 1: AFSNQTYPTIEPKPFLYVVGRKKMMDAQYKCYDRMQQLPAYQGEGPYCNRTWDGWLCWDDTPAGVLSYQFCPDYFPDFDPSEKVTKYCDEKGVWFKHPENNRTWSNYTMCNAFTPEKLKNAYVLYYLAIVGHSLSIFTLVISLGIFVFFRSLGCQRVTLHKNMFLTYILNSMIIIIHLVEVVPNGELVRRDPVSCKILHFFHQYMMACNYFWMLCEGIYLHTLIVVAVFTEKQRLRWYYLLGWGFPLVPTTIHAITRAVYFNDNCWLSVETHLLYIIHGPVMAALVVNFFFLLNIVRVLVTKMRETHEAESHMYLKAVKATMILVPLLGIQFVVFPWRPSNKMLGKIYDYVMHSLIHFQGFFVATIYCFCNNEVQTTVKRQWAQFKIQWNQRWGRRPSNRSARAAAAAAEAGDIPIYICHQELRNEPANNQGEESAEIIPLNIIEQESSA
T1 sequence (looked up) 2: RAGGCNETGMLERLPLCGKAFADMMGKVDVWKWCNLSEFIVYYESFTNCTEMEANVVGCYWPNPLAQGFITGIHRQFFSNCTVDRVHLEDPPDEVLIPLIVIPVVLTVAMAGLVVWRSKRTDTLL

T2: human calcitonin receptor (human, UniProt P30988 25-474)
T2 sequence (looked up): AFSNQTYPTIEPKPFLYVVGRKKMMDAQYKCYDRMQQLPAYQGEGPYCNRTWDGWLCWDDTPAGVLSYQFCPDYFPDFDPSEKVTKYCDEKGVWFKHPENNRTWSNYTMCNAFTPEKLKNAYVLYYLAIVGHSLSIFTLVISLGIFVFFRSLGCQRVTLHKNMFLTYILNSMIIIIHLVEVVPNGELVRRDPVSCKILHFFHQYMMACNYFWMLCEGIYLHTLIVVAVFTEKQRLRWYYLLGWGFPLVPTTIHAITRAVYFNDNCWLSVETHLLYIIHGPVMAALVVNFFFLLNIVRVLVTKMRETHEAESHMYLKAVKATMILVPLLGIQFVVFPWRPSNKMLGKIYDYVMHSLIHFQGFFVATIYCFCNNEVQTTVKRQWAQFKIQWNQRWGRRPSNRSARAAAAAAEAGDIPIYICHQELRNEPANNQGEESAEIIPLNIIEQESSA


Key:
[1] = target: T1, human amylin receptor (amylin 3(a) …); test: cell-based or functional assay
[2] = target: T2, human calcitonin receptor; test: cell-based or functional assay

Row | Binder | Ratio hCT/hAmylin funct. [1] | hAmylin-R funct. EC50 [1] | hCTR funct. EC50 [2]
1 | K([AEEA-C20 diacid])CNTATCATQRLAHFLRHSSPNFGAIPSSTNVGSNTY-NH2 (disulfide 2-7; N-terminus assumed; SMILES CC[C@H](C)[C@H](NC(=O)[C@H](C)NC(=O)CNC(=O)[C@H](Cc1ccccc1)NC(=O)[C@H](CC(N)=O)NC(=O)[C@@H]1CCCN1C(=O)[C@H](CO)NC(=O)[C@H](CO)NC(=O)[C@H](Cc1c[nH]cn1)NC(=O)[C@H](CCCNC(=N)N)NC(=O)[C@H](CC(C)C)NC(=O)[C@H](Cc1ccccc1)NC(=O)[C@H](Cc1c[nH]cn1)NC(=O)[C@H](C)NC(=O)[C@H](CC(C)C)NC(=O)[C@H](CCCNC(=N)N)NC(=O)[C@H](CCC(N)=O)NC(=O)[C@@H](NC(=O)[C@H](C)NC(=O)[C@@H]1CSSC[C@H](NC(=O)[C@@H](N)CCCCNC(=O)COCCOCCNC(=O)CCCCCCCCCCCCCCCCCCC(=O)O)C(=O)N[C@@H](CC(N)=O)C(=O)N[C@@H]([C@@H](C)O)C(=O)N[C@@H](C)C(=O)N[C@@H]([C@@H](C)O)C(=O)N1)[C@@H](C)O)C(=O)N1CCC[C@H]1C(=O)N[C@@H](CO)C(=O)N[C@@H](CO)C(=O)N[C@H](C(=O)N[C@@H](CC(N)=O)C(=O)N[C@H](C(=O)NCC(=O)N[C@@H](CO)C(=O)N[C@@H](CC(N)=O)C(=O)N[C@H](C(=O)N[C@@H](Cc1ccc(O)cc1)C(N)=O)[C@@H](C)O)C(C)C)[C@@H](C)O, also called compound 90) [N^ε1-[2-[2-[2-(19-carboxynonadecanoylamino)ethoxy]ethoxy]acetyl]-[His14,Arg17,Pro21,Pro27]-h-amylin] | 7.2 | 0.033 nM | 0.236 nM
2 | K([γGlu-C20 diacid])CNTATCATQRLAHFLRHSSPNFGAIPSSTNVGSNTY-NH2 (disulfide 2-7; N-terminus assumed; SMILES CC[C@H](C)[C@H](NC(=O)[C@H](C)NC(=O)CNC(=O)[C@H](Cc1ccccc1)NC(=O)[C@H](CC(N)=O)NC(=O)[C@@H]1CCCN1C(=O)[C@H](CO)NC(=O)[C@H](CO)NC(=O)[C@H](Cc1c[nH]cn1)NC(=O)[C@H](CCCNC(=N)N)NC(=O)[C@H](CC(C)C)NC(=O)[C@H](Cc1ccccc1)NC(=O)[C@H](Cc1c[nH]cn1)NC(=O)[C@H](C)NC(=O)[C@H](CC(C)C)NC(=O)[C@H](CCCNC(=N)N)NC(=O)[C@H](CCC(N)=O)NC(=O)[C@@H](NC(=O)[C@H](C)NC(=O)[C@@H]1CSSC[C@H](NC(=O)[C@@H](N)CCCCNC(=O)CC[C@H](NC(=O)CCCCCCCCCCCCCCCCCCC(=O)O)C(=O)O)C(=O)N[C@@H](CC(N)=O)C(=O)N[C@@H]([C@@H](C)O)C(=O)N[C@@H](C)C(=O)N[C@@H]([C@@H](C)O)C(=O)N1)[C@@H](C)O)C(=O)N1CCC[C@H]1C(=O)N[C@@H](CO)C(=O)N[C@@H](CO)C(=O)N[C@H](C(=O)N[C@@H](CC(N)=O)C(=O)N[C@H](C(=O)NCC(=O)N[C@@H](CO)C(=O)N[C@@H](CC(N)=O)C(=O)N[C@H](C(=O)N[C@@H](Cc1ccc(O)cc1)C(N)=O)[C@@H](C)O)C(C)C)[C@@H](C)O, also called compound 70) [N^ε1-[(4S)-4-carboxy-4-(19-carboxynonadecanoylamino)butanoyl]-[His14,Arg17,Pro21,Pro27]-h-amylin] | – | 0.04 nM | 0.715 nM
3 | K([γGlu-γGlu-C20 diacid])CNTATCATQRLANFLRHSSPNFGAIPSSTNVGHNTY-NH2 (disulfide 2-7; N-terminus assumed; SMILES CC[C@H](C)[C@H](NC(=O)[C@H](C)NC(=O)CNC(=O)[C@H](Cc1ccccc1)NC(=O)[C@H](CC(N)=O)NC(=O)[C@@H]1CCCN1C(=O)[C@H](CO)NC(=O)[C@H](CO)NC(=O)[C@H](Cc1c[nH]cn1)NC(=O)[C@H](CCCNC(=N)N)NC(=O)[C@H](CC(C)C)NC(=O)[C@H](Cc1ccccc1)NC(=O)[C@H](CC(N)=O)NC(=O)[C@H](C)NC(=O)[C@H](CC(C)C)NC(=O)[C@H](CCCNC(=N)N)NC(=O)[C@H](CCC(N)=O)NC(=O)[C@@H](NC(=O)[C@H](C)NC(=O)[C@@H]1CSSC[C@H](NC(=O)[C@@H](N)CCCCNC(=O)CC[C@H](NC(=O)CC[C@H](NC(=O)CCCCCCCCCCCCCCCCCCC(=O)O)C(=O)O)C(=O)O)C(=O)N[C@@H](CC(N)=O)C(=O)N[C@@H]([C@@H](C)O)C(=O)N[C@@H](C)C(=O)N[C@@H]([C@@H](C)O)C(=O)N1)[C@@H](C)O)C(=O)N1CCC[C@H]1C(=O)N[C@@H](CO)C(=O)N[C@@H](CO)C(=O)N[C@H](C(=O)N[C@@H](CC(N)=O)C(=O)N[C@H](C(=O)NCC(=O)N[C@@H](Cc1c[nH]cn1)C(=O)N[C@@H](CC(N)=O)C(=O)N[C@H](C(=O)N[C@@H](Cc1ccc(O)cc1)C(N)=O)[C@@H](C)O)C(C)C)[C@@H](C)O, also called compound 86) | 64.4 | 0.298 nM | 19.2 nM
4 | K([γGlu-γGlu-C20 diacid])CNTATCATQRLAEFLRHSSPNFGAIPSSTNVGRNTY-NH2 (disulfide 2-7; N-terminus assumed; SMILES CC[C@H](C)[C@H](NC(=O)[C@H](C)NC(=O)CNC(=O)[C@H](Cc1ccccc1)NC(=O)[C@H](CC(N)=O)NC(=O)[C@@H]1CCCN1C(=O)[C@H](CO)NC(=O)[C@H](CO)NC(=O)[C@H](Cc1c[nH]cn1)NC(=O)[C@H](CCCNC(=N)N)NC(=O)[C@H](CC(C)C)NC(=O)[C@H](Cc1ccccc1)NC(=O)[C@H](CCC(=O)O)NC(=O)[C@H](C)NC(=O)[C@H](CC(C)C)NC(=O)[C@H](CCCNC(=N)N)NC(=O)[C@H](CCC(N)=O)NC(=O)[C@@H](NC(=O)[C@H](C)NC(=O)[C@@H]1CSSC[C@H](NC(=O)[C@@H](N)CCCCNC(=O)CC[C@H](NC(=O)CC[C@H](NC(=O)CCCCCCCCCCCCCCCCCCC(=O)O)C(=O)O)C(=O)O)C(=O)N[C@@H](CC(N)=O)C(=O)N[C@@H]([C@@H](C)O)C(=O)N[C@@H](C)C(=O)N[C@@H]([C@@H](C)O)C(=O)N1)[C@@H](C)O)C(=O)N1CCC[C@H]1C(=O)N[C@@H](CO)C(=O)N[C@@H](CO)C(=O)N[C@H](C(=O)N[C@@H](CC(N)=O)C(=O)N[C@H](C(=O)NCC(=O)N[C@@H](CCCNC(=N)N)C(=O)N[C@@H](CC(N)=O)C(=O)N[C@H](C(=O)N[C@@H](Cc1ccc(O)cc1)C(N)=O)[C@@H](C)O)C(C)C)[C@@H](C)O, also called compound 88) | 8.5 | 0.773 nM | 6.55 nM
5 | KCNTATCATQRLADFLRHSSK([γGlu-γGlu-C20 diacid])NFGAIPSSTNVGSDTY-NH2 (disulfide 2-7; N-terminus assumed; SMILES CC[C@H](C)[C@H](NC(=O)[C@H](C)NC(=O)CNC(=O)[C@H](Cc1ccccc1)NC(=O)[C@H](CC(N)=O)NC(=O)[C@H](CCCCNC(=O)CC[C@H](NC(=O)CC[C@H](NC(=O)CCCCCCCCCCCCCCCCCCC(=O)O)C(=O)O)C(=O)O)NC(=O)[C@H](CO)NC(=O)[C@H](CO)NC(=O)[C@H](Cc1c[nH]cn1)NC(=O)[C@H](CCCNC(=N)N)NC(=O)[C@H](CC(C)C)NC(=O)[C@H](Cc1ccccc1)NC(=O)[C@H](CC(=O)O)NC(=O)[C@H](C)NC(=O)[C@H](CC(C)C)NC(=O)[C@H](CCCNC(=N)N)NC(=O)[C@H](CCC(N)=O)NC(=O)[C@@H](NC(=O)[C@H](C)NC(=O)[C@@H]1CSSC[C@H](NC(=O)[C@@H](N)CCCCN)C(=O)N[C@@H](CC(N)=O)C(=O)N[C@@H]([C@@H](C)O)C(=O)N[C@@H](C)C(=O)N[C@@H]([C@@H](C)O)C(=O)N1)[C@@H](C)O)C(=O)N1CCC[C@H]1C(=O)N[C@@H](CO)C(=O)N[C@@H](CO)C(=O)N[C@H](C(=O)N[C@@H](CC(N)=O)C(=O)N[C@H](C(=O)NCC(=O)N[C@@H](CO)C(=O)N[C@@H](CC(=O)O)C(=O)N[C@H](C(=O)N[C@@H](Cc1ccc(O)cc1)C(N)=O)[C@@H](C)O)C(C)C)[C@@H](C)O, also called compound 59) | – | 0.389 nM | 1.95 nM
6 | K([γGlu-γGlu-C20 diacid])CNTATCATQRLAEFLRHSSPNFGAIPSSTNVGSRTY-NH2 (disulfide 2-7; N-terminus assumed; SMILES CC[C@H](C)[C@H](NC(=O)[C@H](C)NC(=O)CNC(=O)[C@H](Cc1ccccc1)NC(=O)[C@H](CC(N)=O)NC(=O)[C@@H]1CCCN1C(=O)[C@H](CO)NC(=O)[C@H](CO)NC(=O)[C@H](Cc1c[nH]cn1)NC(=O)[C@H](CCCNC(=N)N)NC(=O)[C@H](CC(C)C)NC(=O)[C@H](Cc1ccccc1)NC(=O)[C@H](CCC(=O)O)NC(=O)[C@H](C)NC(=O)[C@H](CC(C)C)NC(=O)[C@H](CCCNC(=N)N)NC(=O)[C@H](CCC(N)=O)NC(=O)[C@@H](NC(=O)[C@H](C)NC(=O)[C@@H]1CSSC[C@H](NC(=O)[C@@H](N)CCCCNC(=O)CC[C@H](NC(=O)CC[C@H](NC(=O)CCCCCCCCCCCCCCCCCCC(=O)O)C(=O)O)C(=O)O)C(=O)N[C@@H](CC(N)=O)C(=O)N[C@@H]([C@@H](C)O)C(=O)N[C@@H](C)C(=O)N[C@@H]([C@@H](C)O)C(=O)N1)[C@@H](C)O)C(=O)N1CCC[C@H]1C(=O)N[C@@H](CO)C(=O)N[C@@H](CO)C(=O)N[C@H](C(=O)N[C@@H](CC(N)=O)C(=O)N[C@H](C(=O)NCC(=O)N[C@@H](CO)C(=O)N[C@@H](CCCNC(=N)N)C(=O)N[C@H](C(=O)N[C@@H](Cc1ccc(O)cc1)C(N)=O)[C@@H](C)O)C(C)C)[C@@H](C)O, also called compound 89) | 27.8 | 0.404 nM | 11.2 nM
